Holding throughout (assay): NanoBRET
The target of test [1] is HaloTag-fused and NanoLuc-fused Gag-MA-S9A (NanoBRET pair). Conditions: living cells; n = 6; mean ± SE; WMAA signal subtracted; parent: est. 100; read off a plot.
For test [2], the target named is HaloTag-fused and NanoLuc-fused Gag-CA-WM184/185AA (NanoBRET pair). The conditions noted are these: living cells; n = 6; mean ± SE; WMAA signal subtracted; parent: est. 100; read off a plot.
Test [3] deals with HaloTag-fused and NanoLuc-fused Gag-MA-G2A (NanoBRET pair). Conditions: living cells; n = 6; mean ± SE; WMAA signal subtracted; parent: est. 100.
Test [4] addresses HaloTag-fused and NanoLuc-fused Gag-MA-S9I (NanoBRET pair). Conditions: living cells; n = 6; mean ± SE; WMAA signal subtracted; parent: est. 100; read off a plot.
Test [5] has as its target HaloTag-fused and NanoLuc-fused Gag-MA-S9F (NanoBRET pair). Conditions: living cells; n = 6; mean ± SE; WMAA signal subtracted; parent: est. 100; read off a plot.
Test [6] concerns the target HaloTag-fused and NanoLuc-fused Gag-MA-S9W (NanoBRET pair). Conditions: living cells; n = 6; mean ± SE; WMAA signal subtracted; parent: est. 100; read off a plot.

For six substances, percent of parent results are on record in PMC12548442.

As for “HaloTag-fused Gag and NanoLuc-fused Gag, wild type (NanoBRET pair) S9A”, in test [1], the percent of parent worked out at 72%.

Consider “HaloTag-fused Gag and NanoLuc-fused Gag, wild type (NanoBRET pair) W184A; M185A”, for which, in test [2], the percent of parent was 0%.

With “HaloTag-fused Gag and NanoLuc-fused Gag, wild type (NanoBRET pair) G2A”, the percent of parent in test [3] is 0%.

For the substance “HaloTag-fused Gag and NanoLuc-fused Gag, wild type (NanoBRET pair) S9I”, the percent of parent in test [4] turned out to be 68%.

Turning to “HaloTag-fused Gag and NanoLuc-fused Gag, wild type (NanoBRET pair) S9F”, in test [5], the percent of parent worked out at 8.6%.

Take “HaloTag-fused Gag and NanoLuc-fused Gag, wild type (NanoBRET pair) S9W”: the percent of parent in test [6] was determined as 42%.
